Patent publication US20210024604A1, “NOVEL INSULIN DERIVATIVES” (Novo Nordisk A/S, priority 2009, published 2021)

Columns and labels:
human serum albumin = target: T1, human serum albumin (Homo sapiens, UniProt P02768); test: Elution from immobilized human serum albumin column; shift in retention time with glucose in eluent; assay type: binding; conditions: retention time with no glucose vs 50 mM glucose in eluent, HSA column
T1 construct: purchased Chromtech Inc HSA 50.3 column
Protocol: The glucose sensitivity of insulin albumin binding can be determined by tuning glucose levels in the elution buffer and determine the shift in retention time as a function of the glucose concentration, table 1 below.
T 37° C., flow 0.7 mL/min, 20 uL of 10 uM samples, UV monitor 220 nm.
Compounds marked with an asterix were eluted with a gradient to 70% buffer B.

[1] = rat, in vivo, iv
Protocol: 30 male, fed Wistar rats (250 g) and 30 male, fed ZDF rats (350 g, 12 weeks old) were anesthetized using Hypnorm-Dormicum (0.081 mg/ml fentanyl citrate (VetaPharma Ltd.), 1.25 mg/ml Midazolam (Roche)) 2 ml/kg as a priming dose and additional 1 ml/kg to timepoint −5 min prior to test substance dosing, and then 1 ml/kg every 45 minutes (4 times).
Both the Wistar rats and the ZDF rats were allocated into 5 groups, 6 rats in each (eg 10 groups in total). […] Two doses of each analogue were tested: 1.2 nmol/kg or 3.6 nmol/kg in Wistar rats, and 3.6 nmol/kg or 7.2 nmol/kg in ZDF rats. Blood samples of 100 μl (tail tip capillary puncture) for determination of plasma insulin were collected in microvette tubes at time 3, 15, 30, 60, 120, 180 and 240 minutes after insulin dosing.

[2] = pH 7.4, 37° C., gradient to 50% buffer B

For “A22M-15-(3,5-Diboronobenzoylamino)pentadecanoyl B29M-15-(3,5-diboronobenzoylamino)pentadecandioyl A22K desB30 Human Insulin [Example 16]”, the “Δ Rt” value (human serum albumin; marked *: eluted with a gradient to 70% buffer B) was 0.7 min.

For “B29M-{4-[16-(3-Boronobenzenesulfonylamino)hexadecanoylsulfamoyl]butanoyl} desB30 Human Insulin [Example 14]”, the “Δ Rt” value (human serum albumin; [2]) was 0.8 min.

In the case of “B29N^ε-16-(2,3-Difluoro-4-boronobenzoylamino)hexadecanoyl A14E B25H des B30 Human Insulin [Example 22]”, the “Δ Rt” value (human serum albumin; [2]) is reported as 1.5 min and the “elimination compared with insulin of example 24” value [1] is reported as “eliminated faster”.

With “B29N^ε-16-(2,3-Difluoro-4-boronobenzoylamino)hexadecanoyl desB30 Human Insulin [Example 6]” the “Δ Rt” value (human serum albumin; [2]) was 2.8 min.

For “B29N^ε-16-(2,3-Difluoro-4-boronobenzoylamino)hexadecanoyl-γ-L-glutamyl desB30 Human Insulin [Example 4]”, the “Δ Rt” value (human serum albumin; [2]) was 1.8 min.

With “B29N^ε-16-(2,6-Difluoro-4-boronobenzoylamino)hexadecanonyl desB30 Human Insulin [Example 9]” the “Δ Rt” value (human serum albumin; [2]) was 2.5 min.
